Assay results from patent publication US20240010735A1 (EISAI R AND D MANAGEMENT, published 2024).

Key:
Experiment in all cases: ELISA: SEAP-His proteins (1 nM) captured on anti-6-His antibody, antibody A 10 µg/mL with human IgG 100 µg/mL, HRP anti-mouse IgG, OD450 as % of human EphA4-SEAP-His
[1] = biological target: T1, human EphA1 extracellular region-SEAP-His protein (human, UniProt P21709 26-547)
T1 construct: extracellular domain; also called Eph receptor extracellular region-SEAP-His protein; not shown: secretory alkaline phosphatase (SEAP); histidine tag
T1 sequence (looked up): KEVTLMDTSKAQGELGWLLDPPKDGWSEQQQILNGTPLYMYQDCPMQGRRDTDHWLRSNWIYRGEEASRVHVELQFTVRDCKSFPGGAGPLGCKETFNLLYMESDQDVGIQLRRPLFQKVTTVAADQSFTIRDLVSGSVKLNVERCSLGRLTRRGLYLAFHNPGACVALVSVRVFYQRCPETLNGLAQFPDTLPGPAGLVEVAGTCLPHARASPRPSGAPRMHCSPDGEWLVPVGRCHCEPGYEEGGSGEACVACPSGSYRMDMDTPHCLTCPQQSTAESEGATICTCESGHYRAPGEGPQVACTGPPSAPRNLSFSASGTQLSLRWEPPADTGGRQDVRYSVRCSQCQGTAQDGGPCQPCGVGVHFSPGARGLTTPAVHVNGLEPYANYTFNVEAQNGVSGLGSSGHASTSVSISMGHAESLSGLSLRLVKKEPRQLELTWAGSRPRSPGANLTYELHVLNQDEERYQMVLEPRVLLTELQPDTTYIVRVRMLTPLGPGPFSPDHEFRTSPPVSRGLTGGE
Experimental: (§1) Rabbit anti-6-His antibodies (Bethel Laboratories) were coated onto the wells of a 96-well plate (Nunc). After incubating at 4° C. overnight, the wells were blocked at room temperature for 1 hour by 1% Block Ace (DS Pharma Biomedical). After washing 3 times with 0.05% Tween 20/PBS (Thermo […]), each Eph receptor of human extracellular region-SEAP-His protein (final concentration 1 nM) was seeded into each well, and incubated at room temperature for 1 hour. After washing 3 times, human IgG solution (100 μg/mL, Mitsubishi Pharma Corporation) and antibody A (10 μg/mL) were supplemented to the wells, and incubated at room temperature for 1 hour. Horseradish peroxidase-labeled donkey anti-mouse IgG antibody (Jackson ImmunoResearch Laboratories) was added, and incubated at room, temperature for 1 hour. After washing 3 times, TMBZ (3,3′,5,5′-tetramethylbenzidine, Sigma) solution was added to the wells, and upon confirmation of modest coloring, an equal amount of quenching solution (1 N H₂SO₄, Wako Pure Chemicals) was added to the wells, and absorbance at 450 nm was read by a microplate reader (PerkinElmer).

[2] = biological target: T2, human EphB4 extracellular region-SEAP-His protein (human, UniProt P54760 16-539)
T2 construct: extracellular domain; also called Eph receptor extracellular region-SEAP-His protein; not shown: secretory alkaline phosphatase (SEAP); histidine tag
T2 sequence (looked up): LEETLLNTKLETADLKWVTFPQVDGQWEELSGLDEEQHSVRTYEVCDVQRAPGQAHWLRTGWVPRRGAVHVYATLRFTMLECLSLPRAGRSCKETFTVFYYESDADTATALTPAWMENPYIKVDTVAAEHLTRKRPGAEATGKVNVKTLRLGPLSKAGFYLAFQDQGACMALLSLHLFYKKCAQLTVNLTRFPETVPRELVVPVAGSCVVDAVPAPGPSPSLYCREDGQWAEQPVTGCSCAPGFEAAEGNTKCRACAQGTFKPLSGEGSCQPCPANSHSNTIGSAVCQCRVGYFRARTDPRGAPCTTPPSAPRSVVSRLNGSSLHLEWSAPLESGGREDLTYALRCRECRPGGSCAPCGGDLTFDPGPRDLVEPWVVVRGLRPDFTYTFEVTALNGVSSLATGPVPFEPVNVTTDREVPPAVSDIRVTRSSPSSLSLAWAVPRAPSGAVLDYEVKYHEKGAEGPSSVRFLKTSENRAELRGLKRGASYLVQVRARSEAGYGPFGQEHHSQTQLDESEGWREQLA
Experimental: as §1

[3] = biological target: T3, human EphA3 extracellular region-SEAP-His protein (human, UniProt P29320 21-541)
T3 construct: extracellular domain; also called Eph receptor extracellular region-SEAP-His protein; not shown: secretory alkaline phosphatase (SEAP); histidine tag
T3 sequence (looked up): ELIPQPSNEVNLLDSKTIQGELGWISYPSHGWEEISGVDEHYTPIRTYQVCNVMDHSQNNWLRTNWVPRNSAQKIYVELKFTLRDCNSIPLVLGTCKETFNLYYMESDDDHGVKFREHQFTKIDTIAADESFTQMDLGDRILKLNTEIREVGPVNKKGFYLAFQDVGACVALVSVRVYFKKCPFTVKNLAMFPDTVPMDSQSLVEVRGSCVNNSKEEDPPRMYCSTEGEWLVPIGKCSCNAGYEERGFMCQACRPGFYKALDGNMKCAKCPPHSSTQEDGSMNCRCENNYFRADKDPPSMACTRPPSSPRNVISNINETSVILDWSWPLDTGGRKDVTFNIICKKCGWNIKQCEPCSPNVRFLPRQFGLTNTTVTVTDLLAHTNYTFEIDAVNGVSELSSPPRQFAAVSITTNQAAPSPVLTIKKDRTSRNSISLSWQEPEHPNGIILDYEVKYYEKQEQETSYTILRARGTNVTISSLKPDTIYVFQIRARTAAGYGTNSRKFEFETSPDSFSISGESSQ
Experimental: as §1

[4] = biological target: T4, human EphA2 extracellular region-SEAP-His protein (human, UniProt P29317 24-537)
T4 construct: extracellular domain; also called Eph receptor extracellular region-SEAP-His protein; not shown: secretory alkaline phosphatase (SEAP); histidine tag
T4 sequence (P29317 24-537): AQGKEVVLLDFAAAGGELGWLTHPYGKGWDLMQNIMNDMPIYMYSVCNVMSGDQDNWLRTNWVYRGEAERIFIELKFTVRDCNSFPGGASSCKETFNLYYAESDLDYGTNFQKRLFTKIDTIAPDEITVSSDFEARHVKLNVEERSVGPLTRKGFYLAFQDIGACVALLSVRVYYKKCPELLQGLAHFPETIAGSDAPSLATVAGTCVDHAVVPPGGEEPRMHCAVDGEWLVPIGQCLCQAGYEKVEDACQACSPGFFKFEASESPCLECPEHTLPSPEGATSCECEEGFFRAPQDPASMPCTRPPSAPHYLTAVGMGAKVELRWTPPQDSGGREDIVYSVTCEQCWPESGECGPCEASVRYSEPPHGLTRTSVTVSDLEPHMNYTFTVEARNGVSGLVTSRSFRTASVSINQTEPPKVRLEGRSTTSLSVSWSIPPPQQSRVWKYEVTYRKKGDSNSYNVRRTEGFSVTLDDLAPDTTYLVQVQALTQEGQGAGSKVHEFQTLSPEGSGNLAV
Experimental: as §1

Measured: binding result

B1: mouse anti-EphA4 monoclonal antibody (antibody A) (antibody, mouse IgG1, kappa, V domains shown)
VH: QVQLKQSGPSLVQPSQSLSITCTVSGFSLTRYGVHWVRQSPGKGLEWLGVIWRGGSTDYNAAFMSRLSITKDNSKSQVFFKMNSLQADDTAIYYCAKESLFGVYYDYGYYSMDYWGQGTSVTVSS
VL: DIQMTQSPSSLSASLGERVSLTCRASQEISGYLSWLQQKPDGTIKRLIYAASTLDSGVPKRFSGSRSGSDYSLTISSLESEDFADYYCLQYASYPLTFGAGTKLELKR
notes: purified from hybridoma supernatant
no binding (tested: 10 µg/mL): all assays above
